# Laboratory results published in patent publication JP2008058208A (dated 2008).
# B1: 陽性クローン株No.20のファージ抗体 (scFv No.20 displayed on M13 phage) (scFv)
# scFv: MAQVKLPESGAELVKPGASVKLSCTPSGFNIKDTYIHWVRQRPGQGLEWIGRIDPANGHTRYAPKFQGKATLTADASSNTAYLHLSSLTSEDTAVYYCPRIVWYSGGYAMDYWGQGTTVTVSSGGGGSGGGGSGGGGSDIELTQSPSSMYASLGERVTITCKASQDINSYLSWFQQKPGKSPKTLIYRANRLVDGVPSRFSGSGSGQDYSLTISSLKYEDMGIYYCLQYDEFPLTFGGGTKLEIKRAA
# notes: not shown: C-terminal fusion to the phage coat protein from phagemid pCANTAB5E; not spelled out
# B2: 抗CRPscFv抗体No.20 (His-tagged scFv, His20) (scFv)
# scFv: B1 scFv
# notes: Mouse scFv (VH-(G4S)3 linker-VL) from an immune phage library, expressed in E. coli HB2151 and purified by the His tag; also called No.20抗体; His20 scFv抗体; not shown: C-terminal 6x histidine tag added by a standard method
# B3: 陽性クローン株No.40のファージ抗体 (scFv No.40 displayed on M13 phage) (scFv)
# scFv: MAQVKLQQSGAEVVKPGASVKLSCKASGYTFIFYHIYWVKQRPGQGLEWIGGINPRSGGTNLNEKFKSKATLTVDKSSSTAYMQLNGLTSEDSAFYYCTRSGTTYDYALDYWGQGTTVTVSSGGGGSGGGGSGGGGSDIELTQSPAIMAASLGQKVTMTCSASSSMSSSYLHWYQQKSGASPKPLIHRTSTLASGVPARFSGSGSGTSYSLTISSVEAEDDATYYCQQWSGYPLTFGGGTKLEIKRAAA
# notes: as for B1
# B4: 抗CRPscFv抗体No.40 (His-tagged scFv, His40) (scFv)
# scFv: B3 scFv
# notes: Mouse scFv (VH-(G4S)3 linker-VL) from an immune phage library, expressed in E. coli HB2151 and purified by the His tag; also called No.40抗体; not shown: C-terminal 6x histidine tag added by a standard method
# Experiments:
# C−反応性タンパク(CRP), ヒトCRP抗原 [1] = biological target: T1, C−反応性タンパク(CRP), ヒトCRP抗原 (human, UniProt P02741 19-224); assay: phage ELISA on plate-coated CRP, detected with HRP/anti-M13
# T1 sequence (looked up): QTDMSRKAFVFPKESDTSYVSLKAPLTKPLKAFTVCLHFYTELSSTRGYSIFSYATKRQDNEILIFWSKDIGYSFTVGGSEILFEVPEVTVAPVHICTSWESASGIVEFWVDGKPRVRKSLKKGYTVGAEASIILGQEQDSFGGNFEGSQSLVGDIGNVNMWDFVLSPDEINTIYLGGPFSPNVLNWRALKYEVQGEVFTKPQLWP
# Protein A = biological target: T2, Protein A (Staphylococcus aureus, UniProt P38507 37-477); assay: immunochromatography test strip, His20 as capture and as gold-colloid label; samples of Protein A and S. aureus cell suspensions
# T2 construct: also called プロテインA; Staphylococcus aureusが産生するProtein A
# C−反応性タンパク(CRP), ヒトCRP抗原 [2] = biological target: T1, C−反応性タンパク(CRP), ヒトCRP抗原; assay: ELISA of His-tag purified scFv on CRP
Binder,"binding result (C−反応性タンパク(CRP), ヒトCRP抗原 [1])",other results
B1,binds,
B2,,binding result (Protein A): no binding
B3,binds,
B4,,"binding result (C−反応性タンパク(CRP), ヒトCRP抗原 [2]): binds"
